This assay concerns the target SARS-CoV-2 main protease (M^pro), tag-free, native N and C termini (SARS-CoV-2).

* marks the point of attachment. Dnp = O=[N+]([O-])c1ccc(*)c([N+](=O)[O-])c1

{MCA}-AVLQSGFRK(Dnp)K-NH2 [FRET substrate MCA-AVLQSGFR-Lys(Dnp)-Lys-NH2] had a Michaelis constant (Km) of the FRET-based enzymatic assay; M^pro 100 nM, substrate at various concentrations, Lineweaver-Burk plot of 1.41 µM.

(Values after publication PMC7923362.)
